Assay results reported in IntAct's records for PubMed 29039417.

B1: Protein PTHB1 (Homo sapiens), Q3SYG4 (parent)
chain: MSLFKARDWWSTILGDKEEFDQGCLCLANVDNSGNGQDKIIVGSFMGYLRIFSPHPAKTGDGAQAEDLLLEVDLRDPVLQVEVGKFVSGTEMLHLAVLHSRKLCVYSVSGTLGNVEHGNQCQMKLMYEHNLQRTACNMTYGSFGGVKGRDLICIQSMDGMLMVFEQESYAFGRFLPGFLLPGPLAYSSRTDSFLTVSSCQQVESYKYQVLAFATDADKRQETEQQKLGSGKRLVVDWTLNIGEQALDICIVSFNQSASSVFVLGERNFFCLKDNGQIRFMKKLDWSPSCFLPYCSVSEGTINTLIGNHNNMLHIYQDVTLKWATQLPHIPVAVRVGCLHDLKGVIVTLSDDGHLQCSYLGTDPSLFQAPNVQSRELNYDELDVEMKELQKIIKDVNKSQGVWPMTEREDDLNVSVVVSPNFDSVSQATDVEVGTDLVPSVTVKVTLQNRVILQKAKLSVYVQPPLELTCDQFTFEFMTPDLTRTVSFSVYLKRSYTPSELEGNAVVSYSRPTDRNPDGIPRVIQCKFRLPLKLICLPGQPSKTASHKITIDTNKSPVSLLSLFPGFASQSDDDQVNVMGFHFLGGARITVLASKTSQRYRIQSEQFEDLWLITNELILRLQEYFEKQGVKDFACSFSGSIPLQEYFELIDHHFELRINGEKLEELLSERAVQFRAIQRRLLARFKDKTPAPLQHLDTLLDGTYKQVIALADAVEENQGNLFQSFTRLKSATHLVILLIALWQKLSADQVAILEAAFLPLQEDTQELGWEETVDAAISHLLKTCLSKSSKEQALNLNSQLNIPKDTSQLKKHITLLCDRLSKGGRLCLSTDAAAPQTMVMPGGCTTIPESDLEERSVEQDSTELFTNHRHLTAETPRPEVSPLQGVSE
partner: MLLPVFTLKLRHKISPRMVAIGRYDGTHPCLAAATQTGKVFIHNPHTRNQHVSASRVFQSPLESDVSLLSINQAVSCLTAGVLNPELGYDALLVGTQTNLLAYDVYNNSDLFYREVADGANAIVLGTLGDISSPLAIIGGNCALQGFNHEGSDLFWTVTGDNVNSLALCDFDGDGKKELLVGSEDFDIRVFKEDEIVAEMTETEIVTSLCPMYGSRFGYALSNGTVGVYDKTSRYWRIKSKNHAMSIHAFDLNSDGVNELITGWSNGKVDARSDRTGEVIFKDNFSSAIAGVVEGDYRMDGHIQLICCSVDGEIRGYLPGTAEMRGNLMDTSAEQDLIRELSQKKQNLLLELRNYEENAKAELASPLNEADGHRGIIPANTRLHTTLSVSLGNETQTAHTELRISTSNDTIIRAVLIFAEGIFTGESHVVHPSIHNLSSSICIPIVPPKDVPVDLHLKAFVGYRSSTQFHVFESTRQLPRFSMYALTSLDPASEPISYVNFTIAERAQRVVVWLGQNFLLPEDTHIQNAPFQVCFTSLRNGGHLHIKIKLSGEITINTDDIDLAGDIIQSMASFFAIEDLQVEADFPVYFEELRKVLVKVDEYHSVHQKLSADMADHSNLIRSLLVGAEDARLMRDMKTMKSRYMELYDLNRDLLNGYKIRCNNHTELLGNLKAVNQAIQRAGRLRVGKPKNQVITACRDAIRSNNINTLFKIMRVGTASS

Variants of: B1
Settings: with bbs2_human BBS2, Q9BXC9

Row | effect of a mutation on the interaction | Variant
1 | with no effect | G518K
2 | with no effect | G518A
3 | with no effect | G518E
4 | with no effect | I523A
5 | with no effect | I523K
6 | with no effect | I523E
7 | with no effect | V522A
8 | with no effect | V522E
9 | with no effect | V522K
10 | with no effect | C525A
11 | with no effect | C525E
12 | with no effect | C525K
13 | with no effect | N515K
14 | with no effect | I519E
15 | with no effect | I519A
16 | with no effect | I519K
17 | with no effect | F527A
18 | with no effect | F527K
19 | with no effect | F527E
20 | with no effect | K526A
21 | with no effect | K526E

Row | effect of a mutation on the interaction | Variant
22 | with no effect | P520A
23 | with no effect | P520E
24 | with no effect | P520K
25 | with no effect | Q524K
26 | with no effect | Q524E
27 | with no effect | Q524A
28 | disrupting interaction strength | R521T
29 | with no effect | R521E
30 | with no effect | R521A
31 | with no effect | R521K
32 | with no effect | P516A
33 | with no effect | P516K
34 | with no effect | P516E
35 | with no effect | D517K
36 | with no effect | D517A
37 | with no effect | D517E
38 | with no effect | L529A
39 | with no effect | R528E
40 | with no effect | R528K
41 | with no effect | R528A

More lines, now with the values behind:

Row | Variant | effect of a mutation on the interaction
42 | S509K | with no effect
43 | S509A | with no effect
44 | S509E | with no effect
45 | P497K | with no effect
46 | D513A | with no effect
47 | D513K | with no effect
48 | D513E | with no effect
49 | R510E | with no effect
50 | R510A | with no effect
51 | R510K | with no effect
52 | V506K | with no effect
53 | V506A | with no effect
54 | V506E | with no effect
55 | L500E | with no effect
56 | L500K | with no effect
57 | L500A | with no effect
58 | E499K | with no effect
59 | E499A | with no effect
60 | N515E | with no effect
61 | N515A | with no effect
62 | N503A | with no effect
63 | N503K | with no effect
64 | N503E | with no effect
65 | P511K | with no effect
66 | P511A | with no effect
67 | P511E | with no effect

Row | Variant | effect of a mutation on the interaction
68 | Y508E | with no effect
69 | Y508A | with no effect
70 | Y508K | with no effect
71 | S498K | with no effect
72 | S498A | with no effect
73 | S498L | disrupting interaction strength
74 | S498E | with no effect
75 | G502K | with no effect
76 | G502E | with no effect
77 | G502A | with no effect
78 | E501A | with no effect
79 | E501K | with no effect
80 | S507A | with no effect
81 | S507K | with no effect
82 | S507E | with no effect
83 | T512K | with no effect
84 | T512A | with no effect
85 | T512E | with no effect
86 | V505A | with no effect
87 | V505K | with no effect
88 | V505E | with no effect
89 | R514A | with no effect
90 | R514E | with no effect
91 | R514K | with no effect
92 | A504K | with no effect
93 | A504E | with no effect
